From patent publication US8449872B2, “Polymer conjugates of nesiritide peptides” (priority 2008, dated 2013) come the findings set out here.

For data set [1] the following is noted: rat, in vivo, iv.
Procedure: (§1) Thirty one (31) adult male Sprague-Dawley rats with indwelling jugular vein and carotid artery catheters (JVC/CAC) (Charles River Labs, Hollister, Calif.) were utilized for this study. […] All animals were food fasted overnight. Prior to dosing, the rats were weighed, the tails and cage cards were labeled for identification and the doses were calculated. Anesthesia was induced and maintained with 3.0-5.0% isoflurane. The JVC and CAC were externalized and flushed with HEP/saline (10 IU/mL HEP/mL saline). The predose sample was collected from the JVC and the catheters were plugged, and labeled to identify the jugular vein and carotid artery. When all of the animals had recovered from anesthesia and the predose samples were processed, the animals were dosed, intravenously (IV) via the JVC using a 1 mL syringe containing the appropriate test article and the dead volume of the catheter was flushed with 0.9% saline to ensure the animals received the correct dose.
(§2) Following a single IV dose, blood samples were collected from groups 1A, 2A, 3A and 4A, at 0 (pre-dose collected as described above), 0.03, 0.33, 2.0, 6.0, 12.0 and 72.0 hours and from Groups 1B, 2B, 3B and 4B at 0 (pre-dose collected as described above), 0.17, 1.0, 4.0, 8.0, 24.0 and 48.0 hours via the carotid artery catheter and processed as stated in the protocol. Following the last collection point, the animals were euthanized.
(§3) Concentrations in plasma that were below LLOQ were replaced with zeros prior to generating Tables and PK analysis. In the event that more than half (>50%) of the data points were below zero, mean concentration will not be shown in the figures or used in PK parameters estimation. The following PK parameters were estimated using plasma concentration-time profile of each animal:
Data set [2] is described as follows: Pharmacokinetic study after a single intravenous dose in rats (noncompartmental analysis of plasma concentrations). Particulars: for Cmax: test article in plasma (non-released PEG-BNP, or native BNP), equivalent protein mass 0.459 mg/kg IV.
Procedure: as §1, §2, §3
Setting [3] is: non-released PEG-BNP in plasma, 0.459 mg/kg IV, Sprague Dawley rats.
Where [4] appears, read: BNP in plasma (released from conjugate or given as native BNP), 0.459 mg/kg IV, rats.

“Also recorded” adds a separate entry of the source. Where two headings read alike, the source gives them in different places.

`CC[C@H](C)[C@@H]1NC(=O)[C@H](CCCNC(=N)N)NC(=O)[C@H](CC(=O)O)NC(=O)[C@H](CCSC)NC(=O)[C@H](CCCCN)NC(=O)[C@H](CCCNC(=N)N)NC(=O)CNC(=O)[C@H](Cc2ccccc2)NC(=O)[C@@H](NC(=O)CNC(=O)[C@H](CO)NC(=O)CNC(=O)[C@H](CCC(N)=O)NC(=O)[C@@H](NC(=O)[C@H](CCSC)NC(=O)[C@H](CCCCN)NC(=O)[C@@H]2CCCN2C(=O)[C@@H](N)CO)C(C)C)CSSC[C@@H](C(=O)N[C@@H](CCCCN)C(=O)N[C@H](C(=O)N[C@@H](CC(C)C)C(=O)N[C@@H](CCCN=C(N)N)C(=O)N[C@@H](CCCN=C(N)N)C(=O)N[C@@H](Cc2cnc[nH]2)C(=O)O)C(C)C)NC(=O)CNC(=O)[C@H](CC(C)C)NC(=O)CNC(=O)[C@H](CO)NC(=O)[C@H](CO)NC(=O)[C@H](CO)NC(=O)[C@H](CO)NC1=O` [BNP, Nesiritide] registered a peak concentration (Cmax) in data set [1] (0.459 mg/kg) of 0.00 ng/mL. The “measurable BNP in plasma (in words)” value in data set [2] (following parent BNP administration IV, rats) is given as “No measurable plasma concentrations; also recorded: No BNP was measurable”.

For “ButyrALD-10K-BNP: non-releasable mono-PEG conjugate (N-terminus directed) of BNP-32 with mPEG-Butyr-ALD-10K”, in data set [2] (setting [3]), the AUCINF is 96.6 ng·h/mL, the CL worked out at 79.17 mL/min/kg, the MRTlast worked out at 0.368 h and the T½ was found to be 0.272 h. For the same compound, in data set [2] (setting [3]), the volume of distribution (Vss) was determined as 2.27 L/kg. The highest concentration (Cmax) in data set [2] (Sprague Dawley rats) came to 355 ng/mL.

Regarding “ButyrALD-40K-BNP: non-releasable mono-PEG conjugate (N-terminus directed) of BNP-32 with mPEG2-Butyr-ALD 40 kDa”, the “peak plasma concentration compared with ButyrALD-10K-BNP (in words)” value in data set [1] is recorded as “higher”. Further, the “clearance compared with ButyrALD-10K-BNP (in words)” value in data set [2] (non-releasable PEG constructs, IV, rats) is given as “lower”. In data set [2] (non-releasable PEG constructs, IV, rats, pooled data), the “half-life compared with ButyrALD-10K-BNP (in words)” value is given as “longer”. For the same compound, in data set [2] (setting [3]), the AUCINF was found to be 41300 ng·h/mL, the CL was found to be 0.185 mL/min/kg, the MRTlast amounted to 24.0 h and the T½ amounted to 26.1 h. Further, the volume of distribution (Vss) in data set [2] (setting [3]) worked out at 0.631 L/kg. Moreover, the peak concentration (Cmax) in data set [2] (Sprague Dawley rats) was found to be 1410 ng/mL.

As for “C2-FMOC-PEG2-40K-BNP: releasable mono-PEG conjugate of BNP-32 made with mPEG2-C2-fmoc-NHS-40K; hydrolysis generates unmodified peptide”, in data set [1] (male, Sprague-Dawley), the “Peak concentrations of the conjugate in plasma” value is 1300 ng/mL. Moreover, the “time of peak concentrations of released BNP” value in data set [1] came to 0.3 h. Moreover, in data set [1] (24 h), the “plasma conjugate concentrations remained above” value is recorded as “above 100 ng/mL”. Also, in data set [2] (setting [4]), the AUCINF is 162 ng·h/mL, the MRTlast came out at 1.84 h and the time of peak concentration (Tmax) worked out at 0.33 h. Besides, the “half-life of the conjugate in plasma” value in data set [2] (intact C2-FMOC-PEG2-40K-BNP in plasma, IV, rats) was 15.0 h.
